Changes are numbered by the printed parent chain. Numbers in names are those of the source. Values belong to the binder of their own block, whether it stands above or below them.
What was measured:
[1] = molecular target: T1, Activin A (Homo sapiens (Human), UniProt P08476 311-426); assay: Biacore SPR grade, CHO stable conditioned media, 20 nM activin A
T1 sequence: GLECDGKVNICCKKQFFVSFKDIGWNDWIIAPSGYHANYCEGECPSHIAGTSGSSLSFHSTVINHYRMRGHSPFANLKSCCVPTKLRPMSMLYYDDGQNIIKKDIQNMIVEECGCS
Method: (§1) Qualitative BIAcore® Assay. E28 and R40 were substituted respectively with other natural amino acids in fusions with IgG1 Fc as described above. Each vActRIIB-IgG1Fc sample from conditioned media was captured on goat anti-human IgG1 Fc antibody (Jackson Immuno Research, cat#109-005-098, lot 63550) coated CMS surface. 20 nM of Activin A was injected over captured sample surfaces using BIACore2000 (BIACore Life Sciences, Piscataway, N.J.). The resulting sensorgrams were normalized to the captured RL (500 RU) of vActRIIB-IgG1Fc variants. The normalized binding response (RU) for some variants are shown in Table 2, and is further described below. Relative binding affinity for activin was also determined by Biacore measurements using conditioned media obtained from mammalian cell expression. Activin A (20 nM) was used to capture soluble receptor polypeptide in the conditioned media and measured SPR signals were normalized. Normalized SPR of +++++: >60, ++++:40-60, +++:20-40, ++:10-20, +: 5-10, −: <5.

[2] = molecular target: T1, Activin A; assay: Biacore SPR grade, COS transient conditioned media, 20 nM activin A
Method: as §1

[3] = molecular target: T1, Activin A; assay: Biacore SPR grade, COS transient conditioned media
Method: as §1

B1: ActRIIB5-IgG1 Fc R40A, linker GGGGS (Fc fusion)
chain: SGRGEAETRECIYYNANWELEATNQSGLERCEGEQDKRLHCYASWRNSSGTIELVKKGCWLDDFNCYDRQECVATEENPQVYFCCCEGNFCNERFTHLPEAGGPEGPWASTTIPSGGPEATAAAGDQGSGALWLCLEGPAHEGGGGSAPELLGGPSVFLFPPKPKDILMISRTPEVTCVVVDVSHEDPEVKFNWYVGGVEVHNAKTKPREEQYNSTYRVVSVLTVLHQDWLNGKEYKCKVSNKALPAPIEKTISKAKGQPREPQVYTLPPSRDELTKNQVSLTCLVKGFYPSDIAVEWESNGQPENNYKTTPPVLDSDGSFFLYSKLTVDKSRWQQGNVFSCSVMHEALHNHYTQKSLSLSPGK
notes: Tested from conditioned media
Normalized SPR [1]: 20 to 40 ru

B2: ActRIIB5-IgG1 Fc E28A, linker GGGGS (Fc fusion)
chain: B1 chain with E10A, A22R
notes: Tested from conditioned media
Normalized SPR [1]: 20 to 40 ru

B3: ActRIIB5-IgG1 Fc E28W R40A, linker GGGGS (Fc fusion)
chain: B1 chain with E10W
notes: Tested from conditioned media
Normalized SPR [1]: 40 to 60 ru

B4: ActRIIB5-IgG1 Fc wild type, no linker (Fc fusion)
chain: SGRGEAETRECIYYNANWELERTNQSGLERCEGEQDKRLHCYASWRNSSGTIELVKKGCWLDDFNCYDRQECVATEENPQVYFCCCEGNFCNERFTHLPEAGGPEGPWASTTIPSGGPEATAAAGDQGSGALWLCLEGPAHEAPELLGGPSVFLFPPKPKDILMISRTPEVTCVVVDVSHEDPEVKFNWYVGGVEVHNAKTKPREEQYNSTYRVVSVLTVLHQDWLNGKEYKCKVSNKALPAPIEKTISKAKGQPREPQVYTLPPSRDELTKNQVSLTCLVKGFYPSDIAVEWESNGQPENNYKTTPPVLDSDGSFFLYSKLTVDKSRWQQGNVFSCSVMHEALHNHYTQKSLSLSPGK
notes: Tested from conditioned media
Normalized SPR [1]: 20 to 40 ru

B6: ActRIIB-IgG1 Fc wild type, linker GGGGS (Fc fusion)
chain: SGRGEAETRECIYYNANWELERTNQSGLERCEGEQDKRLHCYASWRNSSGTIELVKKGCWLDDFNCYDRQECVATEENPQVYFCCCEGNFCNERFTHLPEAGGPEVTYEPPPTAPTGGGGSAPELLGGPSVFLFPPKPKDILMISRTPEVTCVVVDVSHEDPEVKFNWYVGGVEVHNAKTKPREEQYNSTYRVVSVLTVLHQDWLNGKEYKCKVSNKALPAPIEKTISKAKGQPREPQVYTLPPSRDELTKNQVSLTCLVKGFYPSDIAVEWESNGQPENNYKTTPPVLDSDGSFFLYSKLTVDKSRWQQGNVFSCSVMHEALHNHYTQKSLSLSPGK
notes: Tested from conditioned media
Normalized SPR [1]: 40 to 60 ru
normalized SPR signal [2]: 5 to 10 ru

B8: ActRIIB-IgG1 Fc R40N, linker GGGGS (Fc fusion)
chain: B6 chain with R22N
notes: Tested from conditioned media
normalized SPR signal [2]: 10 to 20 ru

B9: ActRIIB-IgG1 Fc R40T, linker GGGGS (Fc fusion)
chain: B6 chain with R22T
notes: Tested from conditioned media
normalized SPR signal [3]: < 5 ru

B10: ActRIIB-IgG1 Fc E28R, linker GGGGS (Fc fusion)
chain: B6 chain with E10R
notes: Tested from conditioned media
normalized SPR signal [3]: < 5 ru

B12: ActRIIB-IgG1 Fc E28D, linker GGGGS (Fc fusion)
chain: B6 chain with E10D
notes: Tested from conditioned media
normalized SPR signal [3]: < 5 ru

B14: ActRIIB-IgG1 Fc R40L, linker GGGGS (Fc fusion)
chain: B6 chain with R22L
notes: Tested from conditioned media
normalized SPR signal [3]: < 5 ru

B15: ActRIIB-IgG1 Fc R40C, linker GGGGS (Fc fusion)
chain: B6 chain with R22C
notes: Tested from conditioned media
normalized SPR signal [3]: < 5 ru

B18: ActRIIB-IgG1 Fc E28L, linker GGGGS (Fc fusion)
chain: B6 chain with E10L
notes: Tested from conditioned media
normalized SPR signal [2]: 5 to 10 ru

B20: ActRIIB-IgG1 Fc R40Y, linker GGGGS (Fc fusion)
chain: B6 chain with R22Y
notes: Tested from conditioned media
normalized SPR signal [3]: < 5 ru

B24: ActRIIB-IgG1 Fc E28Q, linker GGGGS (Fc fusion)
chain: B6 chain with E10Q
notes: Tested from conditioned media
normalized SPR signal [2]: 5 to 10 ru

B25: ActRIIB-IgG1 Fc R40I, linker GGGGS (Fc fusion)
chain: B6 chain with R22I
notes: Tested from conditioned media
normalized SPR signal [3]: < 5 ru

B27: ActRIIB-IgG1 Fc R40P, linker GGGGS (Fc fusion)
chain: B6 chain with R22P
notes: Tested from conditioned media
normalized SPR signal [3]: < 5 ru

B28: ActRIIB-IgG1 Fc R40H, linker GGGGS (Fc fusion)
chain: B6 chain with R22H
notes: Tested from conditioned media
normalized SPR signal [2]: 10 to 20 ru

B29: ActRIIB-IgG1 Fc E28H, linker GGGGS (Fc fusion)
chain: B6 chain with E10H
notes: Tested from conditioned media
normalized SPR signal [2]: 5 to 10 ru

B30: ActRIIB-IgG1 Fc E28Y, linker GGGGS (Fc fusion)
chain: B6 chain with E10Y
notes: Tested from conditioned media
normalized SPR signal [2]: > 60 ru

B31: ActRIIB-IgG1 Fc E28F, linker GGGGS (Fc fusion)
chain: B6 chain with E10F
notes: Tested from conditioned media
normalized SPR signal [2]: 20 to 40 ru

B32: ActRIIB-IgG1 Fc E28M, linker GGGGS (Fc fusion)
chain: B6 chain with E10M
notes: Tested from conditioned media
normalized SPR signal [2]: 10 to 20 ru

B33: ActRIIB-IgG1 Fc E28V, linker GGGGS (Fc fusion)
chain: B6 chain with E10V
notes: Tested from conditioned media
normalized SPR signal [2]: 5 to 10 ru

B34: ActRIIB-IgG1 Fc E28N, linker GGGGS (Fc fusion)
chain: B6 chain with E10N
notes: Tested from conditioned media
normalized SPR signal [3]: < 5 ru

B36: ActRIIB-IgG1 Fc E28G, linker GGGGS (Fc fusion)
chain: B6 chain with E10G
notes: Tested from conditioned media
normalized SPR signal [3]: < 5 ru

B37: ActRIIB-IgG1 Fc R40K, linker GGGGS (Fc fusion)
chain: B6 chain with R22K
notes: Tested from conditioned media
normalized SPR signal [2]: 10 to 20 ru

B38: ActRIIB-IgG1 Fc E28I, linker GGGGS (Fc fusion)
chain: B6 chain with E10I
notes: Tested from conditioned media
normalized SPR signal [2]: 10 to 20 ru

B39: ActRIIB-IgG1 Fc R40F, linker GGGGS (Fc fusion)
chain: B6 chain with R22F
notes: Tested from conditioned media
normalized SPR signal [3]: < 5 ru

More lines, now with the values ahead:

Normalized SPR [1]: 20 to 40 ru
B5: ActRIIB5-IgG1 Fc E28A, no linker (Fc fusion)
chain: B4 chain with E10A
notes: Tested from conditioned media

normalized SPR signal [3]: < 5 ru
B7: ActRIIB-IgG1 Fc E28T, linker GGGGS (Fc fusion)
chain: B6 chain with E10T
notes: Tested from conditioned media

normalized SPR signal [3]: < 5 ru
B11: ActRIIB-IgG1 Fc R40S, linker GGGGS (Fc fusion)
chain: B6 chain with R22S
notes: Tested from conditioned media

normalized SPR signal [3]: < 5 ru
B13: ActRIIB-IgG1 Fc E28P, linker GGGGS (Fc fusion)
chain: B6 chain with E10P
notes: Tested from conditioned media

normalized SPR signal [2]: 5 to 10 ru
B16: ActRIIB-IgG1 Fc R40Q, linker GGGGS (Fc fusion)
chain: B6 chain with R22Q
notes: Tested from conditioned media

normalized SPR signal [2]: 5 to 10 ru
B17: ActRIIB-IgG1 Fc R40M, linker GGGGS (Fc fusion)
chain: B6 chain with R22M
notes: Tested from conditioned media

normalized SPR signal [3]: < 5 ru
B19: ActRIIB-IgG1 Fc E28C, linker GGGGS (Fc fusion)
chain: B6 chain with E10C
notes: Tested from conditioned media

normalized SPR signal [3]: < 5 ru
B21: ActRIIB-IgG1 Fc R40V, linker GGGGS (Fc fusion)
chain: B6 chain with R22V
notes: Tested from conditioned media

normalized SPR signal [2]: 5 to 10 ru
B22: ActRIIB-IgG1 Fc E28K, linker GGGGS (Fc fusion)
chain: B6 chain with E10K
notes: Tested from conditioned media

normalized SPR signal [3]: < 5 ru
B23: ActRIIB-IgG1 Fc E28S, linker GGGGS (Fc fusion)
chain: B6 chain with E10S
notes: Tested from conditioned media

normalized SPR signal [2]: > 60 ru
B26: ActRIIB-IgG1 Fc E28W, linker GGGGS (Fc fusion)
chain: B6 chain with E10W
notes: Tested from conditioned media

normalized SPR signal [2]: 20 to 40 ru
B35: ActRIIB-IgG1 Fc R40G, linker GGGGS (Fc fusion)
chain: B6 chain with R22G
notes: Tested from conditioned media

Normalized SPR [1]: 20 to 40 ru
B40: ActRIIB-IgG1 Fc E28A, linker 2(GGGGS) (Fc fusion)
chain: SGRGEAETRACIYYNANWELERTNQSGLERCEGEQDKRLHCYASWRNSSGTIELVKKGCWLDDFNCYDRQECVATEENPQVYFCCCEGNFCNERFTHLPEAGGPEVTYEPPPTAPTGGGGSGGGGSAPELLGGPSVFLFPPKPKDILMISRTPEVTCVVVDVSHEDPEVKFNWYVGGVEVHNAKTKPREEQYNSTYRVVSVLTVLHQDWLNGKEYKCKVSNKALPAPIEKTISKAKGQPREPQVYTLPPSRDELTKNQVSLTCLVKGFYPSDIAVEWESNGQPENNYKTTPPVLDSDGSFFLYSKLTVDKSRWQQGNVFSCSVMHEALHNHYTQKSLSLSPGK
notes: Tested from conditioned media
